The supplement of paper PMC7125110
± gives the standard error. This sample holds only a part of the variants without activity.

B1: glmS ribozyme (parent)
chain: AUAAAAGCGCCAGAACUACAGAAAUGUAGUUGACGAGGAGGAGGUUUAUCGAAUUUUCGGCGGAUGCCUCCAAA

Legend:
Details in all cases: with glucosamine-6-phosphate
[1] = variants of: B1; assay: self-cleavage kobs at 40 uM GlcN6P; higher = faster cleavage; RNA array
Method in brief: (§1)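 Barcoded ribozyme variants on sequenced MiSeq chips were transcribed in situ by E. coli RNA polymerase and followed at 37 °C through a hybridised Cy3 probe. Glucosamine-6-phosphate at 40 μM to 10 mM in HEPES/KCl/Mg(OAc)2 buffer was flowed in, and tiles were imaged over ~14 h. Signals were normalised to baseline and to non-cleaving reference variants, and per-tile medians were fit to one- or two-exponential decays to give kobs. Weighted Michaelis–Menten fits across concentrations gave kcat and KM.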

[2] = variants of: B1; assay: self-cleavage kobs at 160 uM GlcN6P; higher = faster cleavage; RNA array
Method in brief: as §1

[3] = variants of: B1; assay: self-cleavage kobs at 640 uM GlcN6P; higher = faster cleavage; RNA array
Method in brief: as §1

[4] = variants of: B1; assay: self-cleavage kobs at 2500 uM GlcN6P; higher = faster cleavage; RNA array
Method in brief: as §1

[5] = variants of: B1; assay: self-cleavage kobs at 10000 uM GlcN6P; higher = faster cleavage; RNA array
Method in brief: as §1

Variant	self-cleavage kobs at 40 uM GlcN6P [1]	self-cleavage kobs at 160 uM GlcN6P [2]	self-cleavage kobs at 640 uM GlcN6P [3]	self-cleavage kobs at 2500 uM GlcN6P [4]	self-cleavage kobs at 10000 uM GlcN6P [5]
AUAAAAGCGCCAGAACUACAGAAAUGUAGUUGACGAGGAGGAGGUUUAUCGAAUUCUCGGAGGAUGCCUCCAAA [U56C C61A]	< 1e-05 s⁻¹	< 1e-05 s⁻¹	< 1e-05 s⁻¹		
AUAAAAGCGCCAGAACUACAGAAAUGUAGUUGACCAGGAGGAGGUUUCUCGAAUUUUCGGCGGAUGCCUCCAAA [G35C A48C]	< 1e-05 s⁻¹	< 1e-05 s⁻¹	< 1e-05 s⁻¹	< 1e-05 s⁻¹	< 1e-05 s⁻¹
AUAAAAGCGCCAGGAUUACAGAAAUGUAGUUGACGAGGAGGAGGUUUAUCGAAUUUUCGGCGGAUGCCUCCAAA [A14G C16U]	0.00189 ± 0.00023 s⁻¹	0.0032 ± 0.0007 s⁻¹	0.00488 ± 0.00082 s⁻¹	0.00522 ± 0.0012 s⁻¹	0.0726 ± 0.02 s⁻¹
AUAAAUUCGACAGAACUACAGAAAUGUAAUUGAAGAGGAGGAGGUUUAUCGAAUUUUCGGCGGAUGGAUCUAAA [A6U G7U C10A G29A C34A C67G C68A C71U]	9.49e-05 ± 2.1e-05 s⁻¹		6.07e-05 ± 1.4e-05 s⁻¹		3.01e-05 ± 1.4e-05 s⁻¹
AUAAAAGCGCUAGAACUACAGAAAUGUAGUUGACGAGGAGGAGGUUUGUCGAGUUUUCGGCGGAUGCCUCCAAA [C11U A48G A53G]	< 1e-05 s⁻¹				< 1e-05 s⁻¹
AUAAAAUCGCCAGAACUACAGAAAUGUAGUUUACGAGGAGGAGGUUUAUCGAAUUUUCGGCGGAUGGCUCCAAA [G7U G32U C67G]	< 1e-05 s⁻¹			< 1e-05 s⁻¹	< 1e-05 s⁻¹
AUAAAAGCGCCAGAACUACAGAAAUGUAGUUGACGGGGAGGAGGUUUAUCUAAUUUUCGGCGGAUGCCUCCAAA [A36G G51U]	< 1e-05 s⁻¹		< 1e-05 s⁻¹		< 1e-05 s⁻¹
AUAAAAGCGUCACAACUACAGAAAUGUAGUUGACGAGGAAGAGGUUUAUCGAAUUUUCGGCGGAUGCCUCCAAA [C10U G13C G40A]	< 1e-05 s⁻¹	< 1e-05 s⁻¹			
AUAAAAGCGCCAGAAUUACAGAAAUGUAGUUGACGAGGAGAAGGUUUAUCGAAUUUUCUGCGGAUGCCUCCAAA [C16U G41A G59U]	< 1e-05 s⁻¹		< 1e-05 s⁻¹	< 1e-05 s⁻¹	< 1e-05 s⁻¹
AUAAAAGCGCCAGCACUACAGAAAUGUAGUUGUCGAGGAGGAGGUUUAUCGAUUUGUCGGCGGAUGCCUCCAAA [A14C A33U A53U U56G]	< 1e-05 s⁻¹				2.92e-05 ± 1.4e-05 s⁻¹
AUAAAAGAGCCAGAACUACAGAAAUGUAGUUUACGAGGAGGAGGUUUAUCGAAUUUUCGGCGGAUGCCUCCAAA [C8A G32U]	< 1e-05 s⁻¹	< 1e-05 s⁻¹	< 1e-05 s⁻¹		< 1e-05 s⁻¹
AUAAAAGCGCCAGUACUACAGAAAUGUAGUUGGCGAGUAGGAGGUUUAUCGAAUUUUCGGCGGAUGCCUCAAAA [A14U A33G G38U C71A]	< 1e-05 s⁻¹				
